Experimental data published in US9441262B2, “MASP-2, a complement fixing enzyme, and uses for it” (Helion Biotech ApS, priority 1997, dated 2016).

B1: MASP-2: mannan-binding lectin associated serine protease-2, polypeptide of SEQ ID NO:2 (protein, listed as Homo sapiens)
chain: MRLLTLLGLLCGSVATPLGPKWPEPVFGRLASPGFPGEYANDQERRWTLTAPPGYRLRLYFTHFDLELSHLCEYDFVKLSSGAKVLATLCGQESTDTERAPGKDTFYSLGSSLDITFRSDYSNEKPFTGFEAFYAAEDIDECQVAPGEAPTCDHHCHNHLGGFYCSCRAGYVLHRNKRTCSALCSGQVFTQRSGELSSPEYPRPYPKLSSCTYSISLEEGFSVILDFVESFDVETHPETLCPYEFLKIQTDREEHGPFCGKTLPHRIETKSNTVTITFVTDESGDHTGWKIHYTSTAQPCPYPMAPPNGHVSPVQAKYILKDSFSIFCETGYELLQGHLPLKSFTAVCQKDGSWDRPMPACSIVDCGPPDDLPSGRVEYITGPGVTTYKAVIQYSCEETFYTMKVNDGKYVCEADGFWTSSKGEKSLPVCEPVCGLSARTTGGRIYGGQKAKPGDFPWQVLILGGTTAAGALLYDNWVLTAAHAVYEQKHDASALDIRMGTLKRLSPHYTQAWSEAVFIHEGYTHDAGFDNDIALIKLNNKVVINSNITPICLPRKEAESFMRTDDIGTASGWGLTQRGFLARNLMYVDIPIVDHQKCTAAYEKPPYPRGSVTANMLCAGLESGGKDSCRGDSGGALVFLDSETERWFVGGIVSWGSMNCGEAGQYGVYTKVINYIPWIENIISDF
B2: MASP-1: MBP-associated serine protease, similar in structure to Clr and Cls (protein)
chain: HTVELNNMFGQIQSPGYPDSYPSDSEVTWNITVPDGFRIKLYFMHFNLESSYLCEYDYVKVETEDQVLATFCGRETTDTEQTPGQEVVLSPGSFMSITFRSDFSNEERFTGFDAHYMAVDVDECKEREDEELSCDHYCHNYIGGYYCSCRFGYILHTDNRTCRVECSDNLFTQRTGVITSPDFPNPYPKSSECLYTIELEEGFMVNLQFEDIFDIEDHPEVPCPYDYIKIKVGPKVLGPFCGEKAPEPISTQSHSVLILFHSDNSGENRGWRLSYRAAGNEPELQPPVHGKIEPSQAKYFFKDQVLVSCDTGYKVLKDNVEMDTFQIECLKDGTWSNKIPTCKIVDCRAPGELEHGLITFSTRNNLTTYKSEIKYSCQEPYYKMLNNNTGIYTCSAQGVWMNKVLGRSLPTCLPVCGLPKFSRKLMARIFNGRPAQKGTTPWIAMLSHLNGQPFCGGSLLGSSWIVTAAHCLHQSLDPKDPTLRDSDLLSPSDFKIILGKHWRLRSDENEQHLGVKHTTLHPKYDPNTFENDVALVELLESPVLNAFVMPICLPEGPQQEGAMVIVSGWGKQFLQRFPETLMEIEIPIVDHSTCQKAYAPLKKKVTRDMICAGEKEGGKDACSGDSGGPMVTLNRERGQWYLVGTVSWGDDCGKKDRYGVYSYIHHNKDWIQRVTGVRN

System: C4
Assay: C4 converting activity on Western blot of MBL/MASP preparation (C4b deposition from human serum)
Type: biochemical
Conditions: blot incubated with human serum at 37° C., detection with anti-C4 antibody
Experimental: The C4 activating potentials of MASP-1 and MASP-2, and Clr and Cls, were compared. This was accomplished by separating a C1 preparation and an MBL/MASP preparation by SDS-PAGE followed by Western blotting. The blot was examined for C4 converting activity by incubation with human serum at 37° C., followed by detection of deposited C4b using anti-C4 antibodies.
C1 was purified by incubating IgG-coupled Sepharose beads with human serum at 4° C. The beads were washed and incubated at 37° C. for 30 minutes for activation of Clr and Cls. The beads were suspended in non-reducing sample buffer and, without boiling, subjected to SDS-PAGE, followed by blotting in the absence of SDS. A similar blot was made of an MBL preparation produced in the absence of enzyme inhibitors (The State Serum Institute, Copenhagen). Strips of the blots were incubated for 30 minutes at 37° C. with 1.10 (v/v) human MBL-deficient serum, depleted of Clq by fractionation on Biorex 70. The blots were developed with biotinylated F(ab)2 anti-C4 antibody followed by peroxidase-labelled streptavidin and luminescence reagent. Parallel blots were treated with a serine protease inhibitor (aminoethylbenzenesulfonyl fluoride), which was also present during incubation with serum. Other strips were directly developed with antibodies.

Row | Molecule | C4 deposition at the position of the band
1 | B1 | C4 was deposited
2 | B2 | no C4 deposition was observed
